Source: publication PMC3660092

Molecular target: YFP-IP3R type 1 (UniProt P11881)
Assay: FRET or BRET

UniProt P11881, sequence (P11881 whole entry): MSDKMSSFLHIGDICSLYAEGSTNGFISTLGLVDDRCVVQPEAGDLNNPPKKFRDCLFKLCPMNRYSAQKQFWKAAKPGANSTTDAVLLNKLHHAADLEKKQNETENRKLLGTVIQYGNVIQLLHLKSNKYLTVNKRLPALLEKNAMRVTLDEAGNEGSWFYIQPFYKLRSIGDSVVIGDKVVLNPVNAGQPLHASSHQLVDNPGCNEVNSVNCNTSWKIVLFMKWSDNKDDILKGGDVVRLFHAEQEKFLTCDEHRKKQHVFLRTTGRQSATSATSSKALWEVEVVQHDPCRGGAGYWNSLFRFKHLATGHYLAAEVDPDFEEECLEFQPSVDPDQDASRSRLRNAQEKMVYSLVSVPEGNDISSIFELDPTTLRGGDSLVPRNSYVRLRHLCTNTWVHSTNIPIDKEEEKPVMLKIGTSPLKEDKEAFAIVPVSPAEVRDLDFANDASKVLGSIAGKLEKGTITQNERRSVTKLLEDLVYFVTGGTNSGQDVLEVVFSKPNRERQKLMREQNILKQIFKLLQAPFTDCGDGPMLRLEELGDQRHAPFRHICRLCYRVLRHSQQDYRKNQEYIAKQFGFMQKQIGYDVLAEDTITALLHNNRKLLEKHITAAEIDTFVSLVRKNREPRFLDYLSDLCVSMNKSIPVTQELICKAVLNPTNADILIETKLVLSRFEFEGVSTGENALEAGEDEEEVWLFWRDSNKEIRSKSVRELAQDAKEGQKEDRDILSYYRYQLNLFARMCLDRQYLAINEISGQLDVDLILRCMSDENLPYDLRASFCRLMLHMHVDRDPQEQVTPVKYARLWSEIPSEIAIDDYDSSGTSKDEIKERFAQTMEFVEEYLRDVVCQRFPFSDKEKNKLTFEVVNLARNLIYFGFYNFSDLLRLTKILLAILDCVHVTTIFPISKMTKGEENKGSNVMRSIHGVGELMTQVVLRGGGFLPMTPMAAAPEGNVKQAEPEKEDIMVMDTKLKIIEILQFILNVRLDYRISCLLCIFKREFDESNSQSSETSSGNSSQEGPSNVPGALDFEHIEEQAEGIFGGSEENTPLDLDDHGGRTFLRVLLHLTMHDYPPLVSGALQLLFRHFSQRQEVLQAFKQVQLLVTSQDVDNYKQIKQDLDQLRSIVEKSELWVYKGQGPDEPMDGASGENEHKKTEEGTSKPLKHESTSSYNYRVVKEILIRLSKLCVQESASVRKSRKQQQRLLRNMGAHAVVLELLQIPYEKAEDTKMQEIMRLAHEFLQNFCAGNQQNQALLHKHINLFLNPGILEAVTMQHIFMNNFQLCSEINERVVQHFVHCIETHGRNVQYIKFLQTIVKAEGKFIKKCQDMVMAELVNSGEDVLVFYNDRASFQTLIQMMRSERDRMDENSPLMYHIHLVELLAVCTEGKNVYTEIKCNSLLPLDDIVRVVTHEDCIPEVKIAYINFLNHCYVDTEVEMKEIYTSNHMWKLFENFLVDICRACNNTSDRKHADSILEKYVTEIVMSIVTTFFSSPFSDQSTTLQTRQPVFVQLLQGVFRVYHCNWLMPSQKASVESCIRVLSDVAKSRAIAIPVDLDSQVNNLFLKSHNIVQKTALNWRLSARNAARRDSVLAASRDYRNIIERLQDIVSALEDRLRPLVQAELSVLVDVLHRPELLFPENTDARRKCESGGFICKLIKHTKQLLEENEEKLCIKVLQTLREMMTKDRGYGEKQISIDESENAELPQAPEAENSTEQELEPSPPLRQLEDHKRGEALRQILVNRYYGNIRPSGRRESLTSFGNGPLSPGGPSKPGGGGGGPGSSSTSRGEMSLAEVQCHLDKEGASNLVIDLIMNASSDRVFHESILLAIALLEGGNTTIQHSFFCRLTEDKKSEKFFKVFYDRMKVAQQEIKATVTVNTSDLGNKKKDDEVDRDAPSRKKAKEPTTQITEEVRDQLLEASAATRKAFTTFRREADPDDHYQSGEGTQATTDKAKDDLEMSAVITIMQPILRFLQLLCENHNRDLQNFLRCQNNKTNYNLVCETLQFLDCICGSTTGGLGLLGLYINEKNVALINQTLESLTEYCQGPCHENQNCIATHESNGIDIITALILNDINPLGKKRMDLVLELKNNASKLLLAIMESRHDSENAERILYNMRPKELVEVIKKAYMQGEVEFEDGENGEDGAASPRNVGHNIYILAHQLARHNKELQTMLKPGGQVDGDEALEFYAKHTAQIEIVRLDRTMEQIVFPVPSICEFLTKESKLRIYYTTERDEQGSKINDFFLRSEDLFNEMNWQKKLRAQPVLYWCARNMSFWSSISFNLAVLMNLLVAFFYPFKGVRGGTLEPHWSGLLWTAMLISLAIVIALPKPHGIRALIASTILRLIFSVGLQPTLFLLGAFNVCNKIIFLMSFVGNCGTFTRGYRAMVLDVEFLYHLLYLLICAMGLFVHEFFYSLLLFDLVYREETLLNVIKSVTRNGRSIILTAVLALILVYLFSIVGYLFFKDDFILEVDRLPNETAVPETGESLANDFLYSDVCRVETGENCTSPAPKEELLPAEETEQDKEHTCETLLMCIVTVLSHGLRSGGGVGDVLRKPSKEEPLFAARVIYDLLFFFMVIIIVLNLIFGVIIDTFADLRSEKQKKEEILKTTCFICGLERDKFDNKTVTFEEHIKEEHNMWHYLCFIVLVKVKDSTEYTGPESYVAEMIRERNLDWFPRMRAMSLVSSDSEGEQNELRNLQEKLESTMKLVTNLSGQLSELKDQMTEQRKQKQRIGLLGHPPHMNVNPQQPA

increase of the CFP signal after YFP bleaching (FRET efficiency): 28%
Substance: CFP-Bcl-2 (from UniProt P10415 1-239) (natural protein)
